# T1: recombinant soluble human TL1A (human, UniProt O95150 71-251)
# T1 construct: Homotrimer, expressed in HEK293 and purified over HitrapNTA; no tag is described; Used biotinylated in the HTRF assay and in flow cytometry; also called rsTL1A; hTL1A
# T1 sequence: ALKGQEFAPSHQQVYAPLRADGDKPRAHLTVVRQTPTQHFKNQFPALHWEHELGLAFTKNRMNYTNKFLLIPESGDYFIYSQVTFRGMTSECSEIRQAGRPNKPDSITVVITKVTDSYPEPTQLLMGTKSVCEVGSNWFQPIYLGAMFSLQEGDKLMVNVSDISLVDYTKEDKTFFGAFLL
# T2: endogenous TL1A of stimulated cynomolgus monkey peripheral blood (cynomolgus monkey, UniProt G7PRK8 72-251)
# T2 construct: also called sTL1A (cynomolgus)
# T2 sequence: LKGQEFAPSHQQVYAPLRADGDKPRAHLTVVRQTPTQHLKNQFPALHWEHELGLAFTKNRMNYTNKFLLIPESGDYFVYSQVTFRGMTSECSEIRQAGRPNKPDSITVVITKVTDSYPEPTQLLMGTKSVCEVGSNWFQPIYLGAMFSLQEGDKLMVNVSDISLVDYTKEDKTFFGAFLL
# Tests used:
# [1] = molecular target: T1, recombinant soluble human TL1A; experiment: plate ELISA, TL1A coated, antibody titrated; plate of Lymβ 2
# Description: The first 6 rows of each plate were coated with the test article cytokine, and the last two rows were coated with TL1A as a positive control. Rows 1 and 2 were duplicate rows where the test article cytokine was tested for binding to increasing concentrations of its corresponding anti-cytokine positive control antibody. […] The experiment for each cytokine was repeated three times.
# Plates were incubated overnight at 4° C. After washing the plates three times (3×) with 300 μL PBST using a plate washer (model ELx405; BioTek), plates were blocked by incubating for 1 hour at room temperature with 300 μL of blocking buffer (PBST+0.5% BSA) in each well. […] Plates were then washed 5 times with PBST using the plate washer.
# [2] = molecular target: T2, endogenous TL1A of stimulated …; experiment: MSD ligand-binding assay of 1D1 1.31-free sTL1A in plasma of stimulated cynomolgus blood; upper end over the monkeys; upper end of range over 6 monkeys
# Description: Cynomolgus monkey peripheral blood treated with 1 ng/ml recombinant human IL-12 and 10 ng/ml recombinant human IL-18 was stimulated by immune complex coated plates for 24 hours at 37° C. […] Plasma was prepared from these samples and IFNγ was measured in the plasma samples by a quantitative immune-ligand binding assay using a Mesoscale (MSD) kit. […] Cynomolgus monkey peripheral blood treated with 1 ng/ml recombinant human IL-12 and 10 ng/ml recombinant human IL-18 was stimulated by immune complex coated plates for 24 hours at 37° C.
# For IC and IL-12 and IL-18 stimulation, cynomolgus monkey blood was collected in sodium heparin coated tubes and used within one hour after the blood draw. Human IL-12 (1 ng/mL final concentration) and human IL-18 (10 ng/ml final concentration) were mixed in with blood prior to addition of 95 μL of the blood/IL-12/IL-18 mixture to each well of the IC coated plates.
binder,measurement,setting,value
"1D1 1.31 (antibody, human IgG1, kappa, V domains shown, Full length human IgG1 with effector function-null mutations in the Fc, produced in CHO cells; Used biotinylated for staining of monocytes) VH: QVQLVQSGAEVKKPGASVKVSCKASGYDFTYYGISWVRQAPGQGLEWMGWISTYNGNTHYARMLQGRVTMTTDTSTRTAYMELRSLRSDDTAVYYCARENYYGSGAYRGGMDVWGQGTTVTVSS VL: EIVLTQSPATLSLSPGERATLSCRASQSVSSYLAWYQQKPGQAPRLLIYDASNRATGIPARFSGSGSGTDFTLTISSLEPEDFAVYYCQQRSNWPWTFGQGTKVEIKR",EC50,[1],0.0058 ng/mL
same,IC50,[2],0.09 nM
